Biological target: S protein of SARS-CoV-2 wild strain JPN/TY/WK-521 (on infectious virus) (SARS-CoV-2, UniProt P0DTC2 14-1273)
Experiment: cell-based or functional assay

B1: EV053273 (antibody, V domains shown)
VH: QVQLVQSGAEVKEPGTSVKVSCKASGYIFTGYYIHWVRQAPGQGLEWMGWINPNSGGRNYTQKFQGRVTMTRDKSISTVYMELSGLRSDDTAIYYCARDNSWSTVQFCLDYWGQGTLVTVSS
VL: QSALTQPPSASGSPGQSVTISCTGTSSDVGSYNYVSWYQQYPGKAPKLMIYEVSKRPSGVPDRFSGSKSGNTASLTVSGLQAEDEADYYCSSYGGSNNLVFGGGTKLTVLG
中和活性 IC50 (inhibition of infection of VeroE6/TMPRSS2 cells): ≤ 10 ng/mL
